According to paper PMC7578760:

How the values were obtained:
CIC-HMG/C1 fusion [1] = target: T1, CIC-HMG/C1 fusion (UniProt Q96RK0-2 188-288+1401-1608, internal_change); test: ITC
CIC-HMG = CIC-HMG (UniProt Q96RK0-2 188-288); test: ITC
CIC-HMG/C1 fusion [2] = target: T1, CIC-HMG/C1 fusion; test: EMSA

| Binder | binding result (CIC-HMG/C1 fusion [1]) | binding result (CIC-HMG) | binding result (CIC-HMG/C1 fusion [2]) |
| --- | --- | --- | --- |
| DUSP6 site #4 (ITC) (dsDNA) DNA 1: TTGGATTTCATTCACTGGGG DNA 2: CCCCAGTGAATGAAATCCAA | binds | no binding |  |
| DUSP6 site #5 (ITC) (dsDNA) DNA 1: GGCAGCTTCATTGAGAGAGA DNA 2: TCTCTCTCAATGAAGCTGCC | binds |  |  |
| DUSP6 site #6 (ITC) (dsDNA) DNA 1: GAGAGATTCATTGACACTAA DNA 2: TTAGTGTCAATGAATCTCTC | binds |  |  |
| DUSP6 site #4 (EMSA) (dsDNA) DNA 1: TTGGATTTCATTCACTGGGG DNA 2: CCCCAGTGAATGAAATCCAA |  |  | binds |
| DUSP6 site #5 (EMSA) (dsDNA) DNA 1: GGCAGCTTCATTGAGAGAGA DNA 2: TCTCTCTCAATGAAGCTGCC |  |  | binds |
| DUSP6 site #6 (EMSA) (dsDNA) DNA 1: GAGAGATTCATTGACACTAA DNA 2: TTAGTGTCAATGAATCTCTC |  |  | binds |
| DUSP6 mutant site #4 (EMSA) (dsDNA) DNA 1: TTGGATTTAGCTCACTGGGG DNA 2: CCCCAGTGAGCTAAATCCAA |  |  | no binding |
